# Assay results: paper PMC3711432, “The Fanconi anemia associated protein FAAP24 uses two substrate specific binding surfaces for DNA recognition”
# T1: FAAP24 HhH domain (UniProt Q9BTP7 139-215)
# T1 sequence: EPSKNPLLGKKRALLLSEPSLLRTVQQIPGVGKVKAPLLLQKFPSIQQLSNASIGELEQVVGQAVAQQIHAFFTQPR
# T2: FAAP24 HhH Q205A/Q206A (UniProt Q9BTP7 139-215, Q205A;Q206A)
# T2 sequence: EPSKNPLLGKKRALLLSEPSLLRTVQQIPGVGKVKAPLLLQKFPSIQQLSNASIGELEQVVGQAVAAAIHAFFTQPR
# T3: FAAP24 HhH R161A (UniProt Q9BTP7 139-215, R161A)
# T3 sequence: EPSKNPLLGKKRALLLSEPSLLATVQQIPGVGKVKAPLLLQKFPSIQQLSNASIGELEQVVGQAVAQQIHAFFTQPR
# T4: FAAP24 HhH K171A/K173A (UniProt Q9BTP7 139-215, K171A;K173A)
# T4 sequence: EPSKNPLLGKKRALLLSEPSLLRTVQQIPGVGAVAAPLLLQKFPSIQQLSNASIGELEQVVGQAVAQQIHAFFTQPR
# T5: FAAP24 HhH K173A (UniProt Q9BTP7 139-215, K173A)
# T5 sequence: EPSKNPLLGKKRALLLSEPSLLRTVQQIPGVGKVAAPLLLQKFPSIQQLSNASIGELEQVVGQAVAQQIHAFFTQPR
# T6: FAAP24 full length (UniProt Q9BTP7 1-215)
# T6 sequence: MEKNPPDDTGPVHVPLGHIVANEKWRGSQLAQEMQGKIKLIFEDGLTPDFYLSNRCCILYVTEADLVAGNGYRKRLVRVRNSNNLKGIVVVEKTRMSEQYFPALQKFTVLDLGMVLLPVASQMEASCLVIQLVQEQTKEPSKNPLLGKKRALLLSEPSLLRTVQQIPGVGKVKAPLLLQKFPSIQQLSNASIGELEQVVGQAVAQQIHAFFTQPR
# Assays:
# [1] = molecular target: FAAP24 HhH V162A V162A (UniProt Q9BTP7); assay: EMSA; conditions: EMSA: 10 mM Tris pH 7.0, 10 mM NaCl (high salt: 50 mM NaHPO4, 400 mM NaCl), 5% glycerol, 1 mM DTT, 20 ug/ml BSA, on ice, gel at 4 C; NMR: 50 mM NaHPO4 pH 6.5 …
# [2] = molecular target: T1, FAAP24 HhH domain; assay: EMSA; 10 mM NaCl; apparent Kd; EMSA: 10 mM Tris pH 7.0, 10 mM NaCl (high salt: 50 mM NaHPO4, 400 mM NaCl), 5% glycerol, 1 mM DTT, 20 ug/ml BSA, on ice, gel at 4 C; NMR: 50 mM NaHPO4 pH 6.5, 100 mM NaCl, 8% D2O, 298 K; conditions: protein: recombinant, tags: N-terminal His, label: radiolabeled
# [3] = molecular target: T1, FAAP24 HhH domain; assay: NMR; 100 mM NaCl; EMSA: 10 mM Tris pH 7.0, 10 mM NaCl (high salt: 50 mM NaHPO4, 400 mM NaCl), 5% glycerol, 1 mM DTT, 20 ug/ml BSA, on ice, gel at 4 C; NMR: 50 mM NaHPO4 pH 6.5, 100 mM NaCl, 8% D2O, 298 K; conditions: protein: recombinant; tags: N-terminal His; fork: 10 bp, two 20 nt arms
# [4] = molecular target: T1, FAAP24 HhH domain; assay: NMR; 100 mM NaCl; CSPs comparable with splayed arm; EMSA: 10 mM Tris pH 7.0, 10 mM NaCl (high salt: 50 mM NaHPO4, 400 mM NaCl), 5% glycerol, 1 mM DTT, 20 ug/ml BSA, on ice, gel at 4 C; NMR: 50 mM NaHPO4 pH 6.5, 100 mM NaCl, 8% D2O, 298 K; conditions: protein: recombinant; tags: N-terminal His; 5' overhang 20 nt
# [5] = molecular target: T1, FAAP24 HhH domain; assay: NMR; 100 mM NaCl; CSPs in N-terminal linker; EMSA: 10 mM Tris pH 7.0, 10 mM NaCl (high salt: 50 mM NaHPO4, 400 mM NaCl), 5% glycerol, 1 mM DTT, 20 ug/ml BSA, on ice, gel at 4 C; NMR: 50 mM NaHPO4 pH 6.5, 100 mM NaCl, 8% D2O, 298 K; conditions: protein: recombinant; tags: N-terminal His; single strand
# [6] = molecular target: T2, FAAP24 HhH Q205A/Q206A; assay: EMSA; no significant effect on affinity vs wt; EMSA: 10 mM Tris pH 7.0, 10 mM NaCl (high salt: 50 mM NaHPO4, 400 mM NaCl), 5% glycerol, 1 mM DTT, 20 ug/ml BSA, on ice, gel at 4 C; NMR: 50 mM NaHPO4 pH 6.5, 100 mM NaCl, 8% D2O, 298 K; conditions: protein: recombinant, tags: N-terminal His, (radiolabeled) in EMSA, bubble: 10 bp stem, 10 unpaired nt
# [7] = molecular target: T1, FAAP24 HhH domain; assay: EMSA; 10 mM NaCl; apparent Kd, multiple complexes; EMSA: 10 mM Tris pH 7.0, 10 mM NaCl (high salt: 50 mM NaHPO4, 400 mM NaCl), 5% glycerol, 1 mM DTT, 20 ug/ml BSA, on ice, gel at 4 C; NMR: 50 mM NaHPO4 pH 6.5, 100 mM NaCl, 8% D2O, 298 K; conditions: protein: recombinant, tags: N-terminal His, (radiolabeled) in EMSA, bubble: 10 bp stem, 10 unpaired nt
# [8] = molecular target: T3, FAAP24 HhH R161A; assay: EMSA; EMSA: 10 mM Tris pH 7.0, 10 mM NaCl (high salt: 50 mM NaHPO4, 400 mM NaCl), 5% glycerol, 1 mM DTT, 20 ug/ml BSA, on ice, gel at 4 C; NMR: 50 mM NaHPO4 pH 6.5, 100 mM NaCl, 8% D2O, 298 K; conditions: protein: recombinant, tags: N-terminal His, (radiolabeled) in EMSA, bubble: 10 bp stem, 10 unpaired nt
# [9] = molecular target: T4, FAAP24 HhH K171A/K173A; assay: as above; conditions: protein: recombinant, tags: N-terminal His, (radiolabeled) in EMSA, bubble: 10 bp stem, 10 unpaired nt
# [10] = molecular target: T5, FAAP24 HhH K173A; assay: as above; conditions: protein: recombinant, tags: N-terminal His, (radiolabeled) in EMSA, bubble: 10 bp stem, 10 unpaired nt
# [11] = molecular target: T1, FAAP24 HhH domain; assay: NMR; 100 mM NaCl; CSPs in hairpin 1; EMSA: 10 mM Tris pH 7.0, 10 mM NaCl (high salt: 50 mM NaHPO4, 400 mM NaCl), 5% glycerol, 1 mM DTT, 20 ug/ml BSA, on ice, gel at 4 C; NMR: 50 mM NaHPO4 pH 6.5, 100 mM NaCl, 8% D2O, 298 K; conditions: protein: recombinant; tags: N-terminal His; blunt
# [12] = molecular target: T6, FAAP24 full length; assay: NMR; CSPs in hairpin 1, C-terminus and ERCC4-like domain; EMSA: 10 mM Tris pH 7.0, 10 mM NaCl (high salt: 50 mM NaHPO4, 400 mM NaCl), 5% glycerol, 1 mM DTT, 20 ug/ml BSA, on ice, gel at 4 C; NMR: 50 mM NaHPO4 pH 6.5, 100 mM NaCl, 8% D2O, 298 K; conditions: protein: recombinant; tags: N-terminal His; blunt
molecule,measurement,setting,value
GGGCGGCGGGTTTTTTTTTTGGCGGGGCGG / CCGCCCCGCCTTTTTTTTTTCCCGCCGCCC [B10 bubble],binding signal (fold decrease in affinity vs wt),[1],2
TGCGAATTCATATGCAATATTCAGTGGCTGAGCTACTGG (ssDNA) [ss39],Kd,[2]; single strand,7.8 ± 0.4 µM
splayed arm with 20 nt arms (mixed) DNA 1: GGGCGGCGGGCGGATAGATTGAAATCTTAG DNA 2: GATTCTAAAGTTAGATAGGCCCCGCCGCCC,binding result,[3],binds
5' extension (mixed) DNA: GATTCTAAAGTTAGATAGGCCCCGCCGCCC ?: GGGCGGCGGG,binding result,[4],binds
ds30 (dsDNA) DNA 1: GGGCGGCGGGTTTTTTTTTTGGCGGGGCGG DNA 2: CCGCCCCGCCAAAAAAAAAACCCGCCGCCC,Kd,[2]; blunt,9.1 ± 0.9 µM
TTTTTTTTTTTTTTTTTTTT (ssDNA) [ss20 (dT20)],binding result,[5],binds
B10 bubble (mixed) DNA 1: GGGCGGCGGGTTTTTTTTTTGGCGGGGCGG DNA 2: CCGCCCCGCCTTTTTTTTTTCCCGCCGCCC,binding result,[6],binds
same,Kd,[7],1.2 ± 0.2 µM
same,binding signal,[8],2 fold decrease in affinity vs wt
same,binding signal,[9],4 fold decrease in affinity vs wt
same,binding signal,[10],3 fold decrease in affinity vs wt
ds10 (dsDNA) DNA 1: GGGCGGCGGG DNA 2: CCCGCCGCCC,binding result,[11],binds
same,binding result,[12],binds
